Measured values: paper PMC1557830

What was measured:
[1] = molecular target: SIV surface glycoprotein gp120 (SIVmneE11S), on virions (SIV (strain SIVmneE11S)) (UniProt P05885); assay: cryo-EM structure; cryo-electron tomography of vitrified intact SIVmneE11S virions; 2,986 spikes extracted, aligned and averaged with 3-fold symmetrisation; 28 Å (0.5 FSC); Env unliganded, in situ on the viral membrane
[2] = molecular target: SIV transmembrane glycoprotein gp41 (SIVmneE11S), naturally truncated intra-viral domain of 17 amino acids, on virions (SIV (strain SIVmneE11S)) (UniProt P05885); assay: as above

| Substance | stoichiometry N [1] | stoichiometry N [2] |
| --- | --- | --- |
| SIV surface glycoprotein gp120 (SIVmneE11S), on virions (from UniProt P05885 23-528) (natural protein) | 3 |  |
| SIV transmembrane glycoprotein gp41 (SIVmneE11S), naturally truncated intra-viral domain of 17 amino acids, on virions (from UniProt P05885 529-882) (natural protein) |  | 3 |
